The numbers were not newly measured in article PMC7704677, which cites them from elsewhere.

Holding throughout (assay): UV-vis
Holding throughout (conditions): unphotolysed state; further details not given

One data set has as its target Asp85 (UniProt position 98, WARYADWLFTT).
The subject of another data set is Asp89.
In another data set the target is Asp95 (UniProt position 95, FYRYADWLLTV).
In a further data set the test system is Asp75.

A word on the pKa: it is the negative logarithm of the acid dissociation constant. In the case of “Bacteriorhodopsin (HsBR) (Halobacterium salinarum)”, in the data set with Asp85, the pKa is listed as 2.7.
For “Acetabularia rhodopsin I (ARI) (Acetabularia acetabulum)”, the pKa in the data set on Asp89 is given as 2.7.
With “Thermophilic rhodopsin (TR) (Thermus thermophilus)”, the pKa with Asp95 is 3.4.
As for “Anabaena sensory rhodopsin (ASR) (Anabaena (Nostoc) sp.)”, in the data set with Asp75, the pKa was 4.0.
